The source of these data is a protein production outcome set (Wang et al. 2014).

The data set is described as follows: label from the status in PepcDB records.
On to “MSHSHSHGHSHEPTNYNRAFIISVALNTGFVVIEVVYGLAANSLALLADAGHNLSDVLGLLLAWGASFLGRRQPTPRRTYGLRRSSILAALLNAVLVLVASGAVAWEAIQRFAQPSPVSGSTIIGVAAVGIAINMGSALMFLSGRERDLNIRGAFIHLVADAAVSLGAVLAGIAIVATGWLWFDPVVSLMIVVVIIVSTWQLFQESLNLVTDAVPAGIEPLAVRTFLAELPGVSSIHDLHIWAMSTTETALTAHLIMPAGNLSDAFLVQVNQQLHDHFGIEHTTIHIETGDPSYPCPLAQENVV”, for which the protein production entry is “failed”.

With “MKSHQLLKAPFQHGFLFSRPLVMYCFKTCHDSAWKHYIRFLKYRHEKLYEEALSEIDNAIKVCNSIAFRYFLLSEKLTVLGYMGKHEEGIKLYSHLRGRMRNVSPNLRSIFIGNLLNYCSMYLHNAFECLGRIKPEAHHLEKSSYAFILIGKARYMARTGNVKEAIESYEKALKILQEIPHPSGIIACLNDMAWYTKEKDPEKAKDMAEEALYWNGYFFDAPRFYALDTLFEVQRTTSDPAIVETARLIEIASEGLKDSASDLLKKDQRLFLRLNNSLYRNTKSLQRFLRRNTTSIKHLSEITGVARNRLSDILNGKTQKIRGETLRKIAKAFEKSNILSFPPPLLSEWVKLRIEENFSAALREIKTKRLEERQILFLSTYTALIDRKFLSRKERLKKAYTLLEDIESFADFMAKDHRTMEFVVSMVKAHPFVEGRKEAVKRALARMKRKRLERFVLRYIEMKESDRKLLDRFLRNYGRYDGVRFGIRLKGPEVVREFAKKYSLKVQPLFAAFWCEEDGRVRRRLERVLKHMVLN”, the protein production result is “failed”.

As to “MEQRPYSLCLLRLSALGDITHVLPLVRTLQRERPQARLHWIIDTMGSKLMDGLDGIHFHVYDKHTGLRGMRALRAELTPLGHFDALLHMQVSLRANLLSAFVPAQRRIGYDHNRSKDLHGLFINERIPDNPGIHVLDAIGSFCEPLGLVQREVRWDLPVSEEARAWAWAQWNNDGRPVLMISPCSSHTHRNWQAKRYAAVAEHASAQGWRIVLCGGRSTLERQTADTILAQTQVPLLDMVGKDTLKQLPALLERADLVMTPDSGPMHIANALGKKVLGLHAASNPHRSGPYSDLRYCVNRYDAAAHKYLGKPSNMLKWGTKIESNGVMDLVTVEDAIAAFERYRADYAHH”, the protein production result is on record as “failed”.

Take “MGDVVEMTSELGFKYSILASGSTGNSFYLETPEKKILVDAGLSGKKITSLLAEIDRDPSDLDAILVTHEHKDHIHGVGVLARKYGMDIYANEKTWQIMDSKNMLGKVDNSQKHIFSRGKLLTFGDIDIESFGVSHDAINPQFYRFMKDGKSFVMLTDTGYVSDRMAGLIENADGYLIESNHDIEILRAGSYPWSTKQRILSDQGHLCNEDGADAMIRTIGNKTKKIYLGHLSKENNIKELAYMTMENQLARADFGVGTDFKIFVTSPDTATPLTDILEHHHHHH”: the protein production result is “not failed”.

As to “MSQIWFERILRWRKKAQRFLQGRYARFDELNRTLLLTSVVLALINIFTGYLWVRLLILITVAYVYYRFFSKHIHPRLNENQWFILRKQRLMQKVHAFRKRHMTQKEYRYFKCPKCQQSLRAPKGRGTIKVTCSNCQNQFIKKV”, the protein production entry is “failed”.

Consider “MAMKIPKSGYNRFMKEGAQHFKGTDEAVQRNIEACTELASQIRSAYGPNGMNKMVINHIEKLFVTNDAATILKELEIQHPAARIIIMATEMQEKQIGDNTNTVVILAAALLEHAANLIHMGMTPQEVAAGYEQAAEKALEILPTLVVKEATDMKNIEEVRQYIRSAITSKQYDNEDIIADLVAKACVTTCPANSFNFNVDNIRICKIIGSGVHTSTVMNGMVFKRGAEGEIREARDARIAVYTCPFDLTQTETKGTVLIENADELRNFSKGEEAEVEEQVKAIADNARSSILAKFWLMNFSKGEEAEVEEQQVKAIADNGVKVVVAAGKFGDMYLHFLNKYKIMAVRLTSKFDLRRLCRTVGAQPQARICAPAVNLLGHCDSVAVQEIGDENVVVFDKKSETGKVATIIIRGSSQSRIDDVERAVDDAVNTYKALTKDGKLLAGAGAVEIELAKEIESFGAKAPGLEQYAIKKFAHALETLPKAIAENAGMPTTETLTKLYAEHVAGKKNAGIDIWKRETMDAVVNNIFDLYAGKRLAIKLATDAASTILKVDQIIMSKQATGGPKPRGPKAQDEDDDGMA”, for which the protein production result is recorded as “failed”.

For the sequence “MRNSCYTSSYRQPVSLVVEWVLIGGLAMQDKLHEIRVFENFQEELFETGHVIVTTEVVEKSLNYFGNAHGGYLFTLCDQVAGLVALSTGDYAVTLQSNINYLKAGHLSDQLKIEGLCVHNGKTTKLVEVLITNQEEKILTRATFTMYVTGSISE”, the protein production entry is “failed”.

As to “MPASCQETARLLLRAPTLDDLPQACAIHGDPQTNRFNPNGPINAAACADKLHGWIEHWQQHGFGYWAIALRSDPQRLIGFGGIMQGFFGHEPGLNLYFRLRPEAWGQGYAAEMARAALHLAFSELHAPRVTGLVRPDNLPSRRALERLGLSLDGELDDFPGQAPSLLYRISAPDNPVPG”, the protein production entry was “failed”.

For “MSGTSAALKPPADATTPVRHPDAPAPGELLGAHYGHCFGCGEEQSHGLHLAARAGQGVSITAEFTVQPAHQGAPGLAHGGVLATALDETLGSLNWLLRTIAVTGRLETDFVRPVPVGTVLYLEAEVTAVAGRKIYSTATGRIGGPEGPVAVRADALFVEVKVDHFTDNGRQEEIRAAMNDPDQLRRARAFEVNP”, the protein production entry was “failed”.

Regarding “MRQFKTESKKLLDLMINSIYTNKEIFLRELISNASDAVDKLNFKSLQDPSVKIDQGDLAIRVSFDKDARTITISDNGIGMTAEELERNLGTIAHSGSEEFKTENAEQQGSDVDIIGQFGVGFYSAFMVASHVKVVSRAYGEDVAHVWESDGLEGYTIEDGERAEHGTDVILTLRENEKLDADGEAETYDRFLTEWGLKSLIQQYSNYVRYPIQMMVSKSRQKPKPEDAGDDYKPEYEDYQELETVNSMTPIWKKRSSDVEQKDYDEFYKSTFHDFDDPARTISFHAEGTLEYDALLFVPGRAPFDLYSKDYEKGLSLYSSNVLIMEKCDDLLPDYYNFVRGVVDSADVSLNISRETLQQNRQLKAIAKRVEKKITADLEDMRDNDREAYEKFFENFGRGLKYGIYSSYGMKADELADLLLFWSAKEQKMITLAEYAKGMPEDQKAIYYAAGDSRERLAKMPVVKGVLDRGYDVLLLTQDVDEFTFQAMREYVAADMPKIYEDDAAREAAEKAVADGAEPEVEDRHLELKNVATGDLDLATEDEKKEAEDATKENEDLFSAMKEALGDKVEKVAVSARLTDAPACITTEGPLSLEMEKVLQKGPEGAPDGMPKSQRVLELNAKHPVFDKLVAAQKAGDADKIKQYSGLLYDQALLVEGILPEDPVAFAAAVCNLM”, the protein production entry is “failed”.

Turning to “MERMMNKRILKGTLTAIAALMSAHAFAGQEVTVYTAFETDLLAKYKSAFEKENPDIEIKWVRDSTGIMTAKLLAEKDNPRAEVVWGLAGSSMALLKDQGVLKPYTPKGANELRANLNDPQAQQAWYGNDAFFNAVCFNEAVAKQLNLPKPQSWEDLTNPVYKGHIAMPNPASSGTGYMQVSAWLQNMGEDKAWDYMQRLDQNIAHYTHSGSKPCVQAGMGEVAIGISMATRGAKLKTQGAPLDVIVPNGIGWESEAVGLVKESDAAKRVVDWSVSKAANELYIESYPIVGHQDVSKQVPNYPNVEKVMAKMDFTQMGVDRARVLQTWSEKFDAKSEPKS”, the protein production entry is on record as “failed”.

On to “LVADASPFAMLEQAPDDLISHYDLTGRLLRVSPAWSRIIGGSVAEAAGRRTWDFIAPEDHPAVAAYYADLLREGAAPSSRLRMRVRHVAGDIRVLESRPMPIRNAEGVVTGFVDIARDITEQIETERRYQLALAQAHEA”, for which the protein production entry was “failed”.

For “MDQPWNANIHYDALLDAMVPLGTQCVLDVGCGDGLLAARLARRIPYVTAVDIDAPVLRRAQTRFANAPIRWLHADIMTAELPNAGFDAVVSNAALHHIEDTRTALSRLGGLVTPGGTLAVVTFVTPSLRNGLWHLTSWVACGMANRVKGKWEHSAPIKWPPPQTLHELRSHVRALLPGACIRRLLYGRVLVTWRAPVLEHHHHHH”, the protein production entry was “failed”.

In the case of “MIETLITFIIIFGIIVAIHEYGHLWWAKRSGILVREYAVGMGPKIFAHQAKDGTLYTIRILPLGGYVRLAGWGDDKTEIKKGQAASLVVSKSEVVNPEAENSVSNIVRRINLSEHVELEEAIPMLITEYDFEKELFIEGEVFGEIKRYSVDHDATIIEEDGTEVRIAPLDVQYQSAGVFHKMLTNFGGPLNNFILGIIAFIVLTFVQGGVPSTTNAIGQVEKGTPAYNAGLKAGDKIEAVNGTKTADWNNVVTEISGSKGKELKLEVSRSGKSETLSVTPKKMDGSYRVGIMQSMKTGFFDKITGGFVQAGQSATAIFKALGSLIARPSLDKLGGPVAIYQLSGQAARAGFPAIVYLLAMLSINLGIVNLFPIPVLDGGKIVLNIIEAIRGKALSQEKESIITMVGVVFMLVLFVAVTWNDILRAFVN”, the protein production result is reported as “failed”.

In the case of “MAFKVVISDKEKSVQMEVDPSESRGLIGLTIGDEFDGSIIGLSGYKLKITGGSDKNGFPMKKTVPGARRIRSLVSGGVGYKPRRDGERRRKTFRGNTISDDIVQINTVVIEKGEKPLEELLGADEELEHHHHHH”, the protein production result was “failed”.

Regarding “MKLKTKTMEWSGNSLKLLDQRKLPFIEEYVECKTHEEVAHAIKEMIVRGAPAIGVAAAFGYVLGLRDYKTGSLTDWMKQVKETLARTRPTAVNLFWALNRMEKVFFENADRENLFEILENEALKMAYEDIEVNKAIGKNGAQLIKDGSTILTHCNAGALATVDYGTALGVIRAAVESGKRIRVFADETRPYLQGARLTAWELMKDGIEVYVITDNMAGWLMKRGLIDAVVVGADRIALNGDTANKIGTYSLAVLAKRNNIPFYVAAPVSTIDPTIRSGEEIPIEERRPEEVTHCGGNRIAPEGVKVLNPAFDVTENTLITAIITEKGVIRPPFEENIKKILEV”, the protein production result is given as “not failed”.

As for “MASVSVSHLILFIASMAIAASVAGVFTSSIGELSNAVSEQGLDVSSDVRTDVEIISDSGSDTIYDSGANTITVHVKNTGSETLAPVPGQVDVFVDGTFASDYTVTLEPNGGNSWRPGEVVRIDINDNLSGGDHRLKLIVNGDEEVFEFNT”, the protein production entry was “failed”.

In the case of “MVIGQKVLLARIPKMGDNYSTYLLDIEGTVCPISFVKETLFPYFTNKVPQLVQQDTRDSPVSNILSQFHIDNKEQLQAHILELVAKDVKDPILKQLQGYVWAHGYESGQIKAPVYADAIDFIKRKKRVFIYSSGSVKAQKLLFGYVQDPNAPAHDSLDLNSYIDGYFDINTSGKKTETQSYANILRDIGAKASEVLFLSDNPLELDAAAGVGIATGLASRPGNAPVPDGQKYQVYKNFETL”, the protein production entry is listed as “not failed”.

“MANFKVVVSDPKEARAYQIDIKDAEANALIGKSIGDVVDGSIFGLAGYKVQITGGCDGSGFVMKPDLPGPRRQRILTATGVGYVPKLPGQRRRKMMRGKEIAPDIVQVNAKVVEYGSKSIKALLGLETAEEAPAAELEHHHHHH”: the protein production entry was “not failed”.

Turning to “MTVPWHLVALAFAVCLVVAAPGFLRVYYFVSLCYAGAIAAQSLVFALLFSTTISGWVTLQLLLLLIYGVRLGAFLAVRERNPAYAAELARAERRTAELKLWHQIAIWLGVSLLFTLLFLPALLTLSLQAQGAWPVSTPLGVMIMAVGLWVESLADWQKYRYKAEHPSHYCDTGLYRLVRCPNYLGEMVFWFGVWFSGLSAYGSGGAWTLTLLGMLYILALMTAAAAGLERKQDERYGDRPDYQEYVRSVPILFPWVPLFTLRKLLIRFR”, the protein production entry was “failed”.

Consider “MTDTHTCLTAKDFTSNQEPKWCPGCGDFMVLQQLKNAMAELCLKTEEVVVVSGIGCSSRLPYYINTYGVHGIHGRAMAMASGLKVARPDLSVWVGTGDGDALSIGGNHYIHTVRRNLDINVVLFNNEIYGLTKGQYSPTSKVGLRTVTSPTGVVDYPINTIALTLGAGGTFVARVMDRDGKLMKEIFKRAHNHKGTSIVEIYQNCPIFNDGAFRAFSDKERKDDTTLYLEQGQPLVFGANGSKGIYLDGFKPTVIDLEKSGVSKDDLWIHDENDLIKANILSRFFDDPNSTEEFLPRPFGIFYVEDRFTYEQALSAQIDKAQEKGEGTLEELLAGNSTWTIN”, for which the protein production entry is on record as “failed”.
